Laboratory results published in patent publication US5877275A, “Controlling cellular immune/inflammatory responses with β2 integrins” (The General Hospital Corporation, priority 1995, dated 1999).

Molecular target: iC3b (Homo sapiens, UniProt P01024)
Test: Binding of soluble heterodimer / wild-type receptor to iC3b-sepharose (elution, SDS-PAGE, autoradiography)
Conditions: detergent soluble fraction of 125I-surface-labelled neutrophils, immunoprecipitated with 44a mAb from eluate
Procedure: CD11b^1089 /CD18^699 was next tested for its ability to bind iC3b (the receptor bound by wild-type CD11b/CD18). Briefly, COS cells were transfected CD11b^1089 and CD18^699 cDNA as described above. Cells were labeled with ^35 S-methionine as described by Dana et al., J. Clin. Invest. 79:1010 (1987). Supernatants from both co-transfected COS cells (7×10^6 cells) and mock-transfected COS cells (7×10^6 cells) were concentrated to one ml using collodion bags (10,000 MW cut off). 100 μl of the concentrated supernatant were used for immunoprecipitation, and the rest of the supernatant was incubated with C3b-sepharose or iC3b-sepharose. C3b-sepharose and iC3b-sepharose was washed, eluted with 0.4 M NaCl and the eluted proteins were analyzed by SDS-PAGE and autoradiography. Binding of wild-type, membrane-bound CD11b/CD18 to iC3b-sepharose or C3b-sepharose was performed as described by Arnaout et al., (In Methods in Enzymology, DiSabato, Ed., Acad. Press Inc., Fla., 1987) using the detergent soluble fraction from 1×10^8 125 I-surface-labelled neutrophils.
FIG. 3 illustrates the results of SDS-PAGE analysis of neutrophil-derived ^125 I-surface-labeled glycoproteins eluted from C3b-sepharose and iC3b-sepharose. Eluants from C3b-sepharose (lane a) contained complement receptor type 1 (250kD) and the C3-binding regulatory protein gp45/70 (45-70 kD). […]

Sequence of iC3b (P01024 23-667 limits assumed): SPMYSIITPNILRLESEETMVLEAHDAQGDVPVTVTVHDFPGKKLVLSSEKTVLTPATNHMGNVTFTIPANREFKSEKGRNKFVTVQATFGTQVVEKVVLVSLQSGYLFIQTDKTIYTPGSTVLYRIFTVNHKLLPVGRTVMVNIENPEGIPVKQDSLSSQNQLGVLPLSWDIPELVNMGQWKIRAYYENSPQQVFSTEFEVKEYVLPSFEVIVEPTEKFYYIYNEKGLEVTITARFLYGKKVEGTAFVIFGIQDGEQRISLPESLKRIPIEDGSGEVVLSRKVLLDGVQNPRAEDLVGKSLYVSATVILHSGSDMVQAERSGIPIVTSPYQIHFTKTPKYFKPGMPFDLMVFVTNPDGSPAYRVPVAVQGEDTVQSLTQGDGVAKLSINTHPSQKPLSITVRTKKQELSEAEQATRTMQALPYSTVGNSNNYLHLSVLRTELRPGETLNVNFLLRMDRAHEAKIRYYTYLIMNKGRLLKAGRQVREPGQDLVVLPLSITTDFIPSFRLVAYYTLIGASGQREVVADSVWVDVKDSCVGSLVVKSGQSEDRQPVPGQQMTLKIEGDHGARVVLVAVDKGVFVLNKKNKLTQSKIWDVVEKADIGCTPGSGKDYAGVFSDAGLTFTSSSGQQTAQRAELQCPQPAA
Sequence of iC3b (P01024 749-954 limits assumed): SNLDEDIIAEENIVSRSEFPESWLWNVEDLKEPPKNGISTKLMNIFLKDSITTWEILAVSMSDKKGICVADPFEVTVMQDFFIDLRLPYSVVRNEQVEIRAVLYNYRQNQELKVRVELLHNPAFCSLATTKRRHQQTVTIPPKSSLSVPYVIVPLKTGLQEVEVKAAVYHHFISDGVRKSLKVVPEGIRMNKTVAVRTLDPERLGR
Sequence of iC3b (P01024 955-1303 limits assumed): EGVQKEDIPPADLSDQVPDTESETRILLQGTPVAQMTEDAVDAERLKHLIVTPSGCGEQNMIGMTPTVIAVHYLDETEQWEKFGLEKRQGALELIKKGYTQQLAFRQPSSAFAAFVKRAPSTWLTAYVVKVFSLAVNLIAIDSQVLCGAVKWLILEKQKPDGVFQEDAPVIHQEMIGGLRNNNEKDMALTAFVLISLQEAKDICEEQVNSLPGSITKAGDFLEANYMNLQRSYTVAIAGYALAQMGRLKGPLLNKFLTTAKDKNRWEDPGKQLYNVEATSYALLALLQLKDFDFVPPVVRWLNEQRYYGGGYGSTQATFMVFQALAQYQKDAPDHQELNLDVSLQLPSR
Sequence of iC3b (P01024 1321-1663 limits assumed): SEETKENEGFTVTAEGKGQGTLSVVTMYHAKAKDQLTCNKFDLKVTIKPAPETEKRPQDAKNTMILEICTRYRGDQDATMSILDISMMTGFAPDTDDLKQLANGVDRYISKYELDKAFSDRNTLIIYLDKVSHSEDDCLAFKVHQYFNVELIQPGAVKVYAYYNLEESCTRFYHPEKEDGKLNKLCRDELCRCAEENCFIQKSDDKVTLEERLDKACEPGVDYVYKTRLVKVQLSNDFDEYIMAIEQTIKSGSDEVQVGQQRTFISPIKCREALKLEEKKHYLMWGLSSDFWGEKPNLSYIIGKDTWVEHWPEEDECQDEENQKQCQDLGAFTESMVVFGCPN

For “CD11b/CD18: wild-type, membrane-bound CD11b/CD18 from surface-labelled neutrophils”, the “binding to iC3b-sepharose” value was “eluted from iC3b-sepharose”.
